Earlier results in article PMC11866742.

Target: SIRPα (Homo sapiens) (UniProt P78324)
UniProt P78324, sequence (P78324 31-373): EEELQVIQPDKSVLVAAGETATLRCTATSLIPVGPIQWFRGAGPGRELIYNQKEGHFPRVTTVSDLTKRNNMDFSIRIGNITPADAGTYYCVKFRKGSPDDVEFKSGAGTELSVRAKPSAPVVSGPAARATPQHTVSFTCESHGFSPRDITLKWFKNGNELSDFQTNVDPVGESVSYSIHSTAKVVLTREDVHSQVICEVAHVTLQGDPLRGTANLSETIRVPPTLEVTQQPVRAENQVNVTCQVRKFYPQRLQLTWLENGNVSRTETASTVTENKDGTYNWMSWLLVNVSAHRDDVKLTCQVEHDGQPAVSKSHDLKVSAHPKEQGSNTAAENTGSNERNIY

Kd: 1500 nM
Substance: CD47 (from UniProt Q08722)
